Assay results taken from patent US20240101668A1 (WUGEN, published 2024).

Legend:
[1] = target: T1, huFLT3-M227 stably expressed on Ramos cells (human, UniProt P36888 27-993); experiment: FACS on cells
T1 construct: whole, on cells; also called FLT3 Mutant
Method: (§1) For FLT3, Ramos cells were engineered to stably express either the huFLT3-T227 or huFLT3-M227 variant at >200,000 receptors per cell. Parental, huFLT3-T227, and huFLT3-M227 Ramos cell lines were stained with differing levels of CellTrace Violet Cell Proliferation Kit (ThermoFisher, cat. #C34557) to barcode each cell line. Barcoded Ramos cell lines were fixed with paraformaldehyde and incubated with myc-labeled scFv periplasmic extracts and a secondary anti-myc PE-conjugated monoclonal antibody. Appropriate positive and negative controls were used. Stained cells were analyzed by flow cytometry (CytoFLEX, Beckman Coulter, Inc.) and binding was assessed by change in PE mean fluorescence intensity (MFI) of the barcoded cell populations.

[2] = target: T2, huFLT3-T227 stably expressed on Ramos cells (human, UniProt P36888 27-993); experiment: FACS on cells
T2 construct: whole, on cells; also called FLT3 WT
Method: as §1

FACS geometric mean fold change over Jurkat parental [1] [fold] | FACS geometric mean fold change over Jurkat parental [2] [fold] | Binder
10 to 30 | 10 to 30 | Polypeptide No. 213 (scFv, V domains shown, scFv) VH: QVQLVQSGAEVKKPGASVKVSCKASGYTFSRYYMSWVRQAPGQGLEWMGWMNPNSGNTGYAQKFQGRVTMTRDTSTSTVYMELSSLRSEDTAVYYCARTRFAAQPHNWHFDLWGRGTLVTVSS VL: DIQMTQSPSSLSASVGDRVTITCRASQSISSYLNWYQQKPGKAPKLLIYDASNLKTGVPSRFSGSGSGTDFTLTISSLQPEDFATYYCQQSYSTPLTFGPGTKVDIKR
> 30 | > 30 | Polypeptide No. 223 (scFv, V domains shown, scFv) VH: QVQLVQSGAEVKKPGASVKVSCKASGYTFTNSFIHWVRQAPGQGLEWMGIINPSGGSTSYAQKFQGRVTMTRDTSTSTVYMELSSLRSEDTAVYYCAKALERRYYYGMDVWGQGTTVTVSS VL: DIQMTQSPSSLSASVGDRVTITCRASQGISNYLAWYQQKPGKAPKLLIYDGSNLETGVPSRFSGSGSGTDFTLTISSLQPEDFATYYCQQSYSTPLTFGQGTKVEIKR
> 30 | > 30 | Polypeptide No. 228 (scFv, V domains shown, scFv) VH: QVQLVQSGAEVKKPGASVKVSCKASGGTFSSHAISWVRQAPGQGLEWMGWINPGSGGTNYAQKFQGRVTMTRDTSTSTVYMELSSLRSEDTAVYYCAKDSYDFWSGYYIDYWGQGTLVTVSS VL: DIQMTQSPSSLSASVGDRVTITCRASQSIYTHLNWYQQKPGKAPKLLIYAASRLQTGVPSRFSGSGSGTDFTLTISSLQPEDFATYYCQQSYSFPFTFGPGTKVDIKR
2 to 10 | 2 to 10 | Polypeptide No. 243 (scFv, V domains shown, scFv) VH: QVQLVQSGAEVKKPGSSVKVSCKASGGTFSSHAFNWVRQAPGQGLEWMGGISPMFGTPNYAQKFQGRVTITADESTSTAYMELSSLRSEDTAVYYCARAPDYGDDWYFDLWGRGTLVTVSS VL: EIVMTQSPATLSVSPGERATLSCRASQTLTGGLLAWYQQKPGQAPRLLIYDTSSRAAGIPARFSGSGSGTEFTLTISSLQSEDFAVYYCHHYGSSPYTFGQGTKVEIKR
> 30 | > 30 | Polypeptide No. 242 (scFv, V domains shown, scFv) VH: QVQLVQSGAEVKKPGSSVKVSCKASGGTFSSATISWVRQAPGQGLEWMGGIIPMFGTANYAQKFQGRVTITADESTSTAYMELSSLRSEDTAVYYCARDAYGDSTWGQGTLVTVSS VL: EIVMTQSPATLSVSPGERATLSCRASESVSSALAWYQQKPGQAPRLLIYGASTRATGIPARFSGSGSGTEFTLTISSLQSEDFAVYYCQQYGNSVTFGGGTKVEIKR
10 to 30 | 10 to 30 | Polypeptide No. 208 (scFv, V domains shown, scFv) VH: QVQLVQSGAEVKKPGASVKVSCKASGGTFSSRSISWVRQAPGQGLEWMGIINPSGGGTLYAQKFQGRVTMTRDTSTSTVYMELSSLRSEDTAVYYCAKDMDGWSDAFDIWGQGTTVTVSS VL: EIVMTQSPATLSVSPGERATLSCRASQSLSNIYLAWYQQKPGQAPRLLIYDVSSRAAGIPARFSGSGSGTEFTLTISSLQSEDFAVYYCQQYATSPLTFGGGTKVEIKR
10 to 30 | 10 to 30 | Polypeptide No. 212 (scFv, V domains shown, scFv) VH: QVQLVQSGAEVKKPGSSVKVSCKASGYTFTGYYMHWVRQAPGQGLEWMGGIIPILGTANNAQKFQGRVTITADESTSTAYMELSSLRSEDTAVYYCARAPWGTFDYWGQGTLVTVSS VL: EIVMTQSPATLSVSPGERATLSCRASQSVSSSQLAWYQQKPGQAPRLLIYDTSTRATGIPARFSGSGSGTEFTLTISSLQSEDFAVYYCQQYDNSLWTFGQGTRLEIKR
> 30 | > 30 | Polypeptide No. 238 (scFv, V domains shown, scFv) VH: QVQLVQSGAEVKKPGASVKVSCKASGYTFTIYYMHWVRQAPGQGLEWMGIINPSGGSTVYAQTFQGRVTMTRDTSTSTVYMELSSLRSEDTAVYYCARGIGSKGAFDIWGQGTMVTVSS VL: not shown
> 30 | > 30 | Polypeptide No. 291 (scFv, V domains shown, scFv) VH: QVQLVQSGAEVKKPGASVKVSCKASGYTFTSYYMHWVRQAPGQGLEWMGIINPSGGSTVYAQTFQGRVTMTRDTSTSTVYMELSSLRSEDTAVYYCARGIGSKGAFDIWGQGTMVTVSS VL: not shown
> 30 | > 30 | Polypeptide No. 233 (scFv, V domains shown, scFv) VH: QVQLVQSGAEVKKPGASVKVSCKASGYTFTSYYLHWVRQAPGQGLEWIGVINPSGGSTTYAQRFQGRVTMTRDTSTSTVYMELSSLRSEDTAVYYCARGIGYGGYFDYWGQGTLVTVSS VL: DIVMTQSPLSLPVTPGEPASISCRSSQSLLHSNGYNYLDWYLQKPGQSPQLLIYAASSLQSGVPDRFSGSGSGTDFTLKISRVEAEDVGVYYCMQGLRTPHTFGGGTKVEIKR
10 to 30 | 10 to 30 | Polypeptide No. 207 (scFv, V domains shown, scFv) VH: QVQLVQSGAEVKKPGASVKVSCKASGYTFTNYYMHWVRQAPGQGLEWMGWMNPNSGNTGYAQRFQGRVTMTRDTSTSTVYMELSSLRSEDTAVYYCAKSHYYYFYGMDVWGQGTTVTVSS VL: DIQMTQSPSSLSASVGDRVTITCQASHDISKYLNWYQQKPGKAPKLLIYAASILQSGVPSRFSGSGSGTDFTLTISSLQPEDFATYYCQQSYSTPYTFGQGTKLEIKR
10 to 30 | 10 to 30 | Polypeptide No. 215 (scFv, V domains shown, scFv) VH: QVQLVQSGAEVKKPGASVKVSCKASGYTFTGYRMHWVRQAPGQGLEWMGWINPNSGGTNYAQKFQGRVTMTRDTSTSTVYMELSSLRSEDTAVYYCAKGGLDWRNWYFDLWGRGTLVTVSS VL: DIQMTQSPSSLSASVGDRVTITCRASQGISSYLAWYQQKPGKAPKLLIYAASTLQSGVPSRFSGSGSGTDFTLTISSLQPEDFATYYCQQSYSTPLTFGGGTKVEIKR
> 30 | > 30 | Polypeptide No. 231 (scFv, V domains shown, scFv) VH: QVQLVQSGAEVKKPGASVKVSCKASGYTFTSYYIHWVRQAPGQGLEWMGLINPSGGSTTYAQSFQGRVTMTRDTSTSTVYMELSSLRSEDTAVYYCARGLGWGVVVPAAELDYWGQGTLVTVSS VL: DIQMTQSPSSLSASVGDRVTITCRASQSISTYLNWYQQKPGKAPKLLIYAASNLQSGVPSRFSGSGSGTDFTLTISSLQPEDFATYYCQQSYSSPLTFGPGTKVDIKR
10 to 30 | 10 to 30 | Polypeptide No. 241 (scFv, V domains shown, scFv) VH: QVQLVQSGAEVKKPGASVKVSCKASGYTFTRHYVHWVRQAPGQGLEWMGIINPSGGSTSYAQKFQGRVTMTRDTSTSTVYMELSSLRSEDTAVYYCARSYHHYYYGMDVWGQGTTVTVSS VL: DIQMTQSPSSLSASVGDRVTITCRASQSISNYLAWYQQKPGKAPKLLIYAASSLQGGVPSRFSGSGSGTDFTLTISSLQPEDFATYYCQQSYSTPWTFGQGTKVEIKR
> 30 | > 30 | Polypeptide No. 229 (scFv, V domains shown, scFv) VH: QVQLVQSGAEVKKPGASVKVSCKASGYTFTNYYMHWVRQAPGQGLEWMGIINPSGGSTSYAQKFQGRVTMTRDTSTSTVYMELSSLRSEDTAVYYCARGVGYSGYGADLWGRGTLVTVSS VL: DIQMTQSPSSLSASVGDRVTITCRASQGISNSLAWYQQKPGKAPKLLIYAASSLQSGVPSRFSGSGSGTDFTLTISSLQPEDFATYYCQQSHSPPYTFGQGTKLEIKR
> 30 | > 30 | Polypeptide No. 222 (scFv, V domains shown, scFv) VH: QVQLVQSGAEVKKPGASVKVSCKASGYSFTAYYMHWVRQAPGQGLEWMGIINPSGGSTSYAQKFQGRVTMTRDTSTSTVYMELSSLRSEDTAVYYCARVAGINGEMAYWGQGTLVTVSS VL: DIQMTQSPSSLSASVGDRVTITCRASQDISNYLAWYQQKPGKAPKLLIYAASTLQSGVPSRFSGSGSGTDFTLTISSLQPEDFATYYCQQSYRTPYTFGQGTKVEIKR
10 to 30 | 10 to 30 | Polypeptide No. 219 (scFv, V domains shown, scFv) VH: QVQLVQSGAEVKKPGASVKVSCKASGYTFTNYYMHWVRQAPGQGLEWMGIINPSSGSASYTQKLQGRVTMTRDTSTSTVYMELSSLRSEDTAVYYCARDRSTLVPLDYWGQGTLVTVSS VL: DIQMTQSPSSLSASVGDRVTITCRASQGIRSELSWYQQKPGKAPKLLIYKASSLESGVPSRFSGSGSGTDFTLTISSLQPEDFATYYCLQHNSYPLTFGGGTKVEIKR
> 30 | > 30 | Polypeptide No. 235 (scFv, V domains shown, scFv) VH: QVQLVQSGAEVKKPGASVKVSCKASGYTFTGYYMHWVRQAPGQGLEWMGIINPSGGSTSYAQKFQGRVTMTRDTSTSTVYMELSSLRSEDTAVYYCARDPGRLGELDYWGQGTLVTVSS VL: EIVMTQSPATLSVSPGERATLSCRASQSVSSNLAWYQQKPGQAPRLLIYGASTRATGIPARFSGSGSGTEFTLTISSLQSEDFAVYYCQQYGSSPLTFGGGTKVEIKR
> 30 | > 30 | Polypeptide No. 240 (scFv, V domains shown, scFv) VH: QVQLVQSGAEVKKPGASVKVSCKASGYTFTSYYMHWVRQAPGQGLEWMGIINPSSGSTTYALKFQGRVTMTRDTSTSTVYMELSSLRSEDTAVYYCARGLGKSAIDYWGQGTLVTVSS VL: not shown
10 to 30 | 10 to 30 | Polypeptide No. 218 (scFv, V domains shown, scFv) VH: QVQLVQSGAEVKKPGASVKVSCKASGYSFTTHYMHWVRQAPGQGLEWMGIINPSGGSTRYAQKFQGRVTMTRDTSTSTVYMELSSLRSEDTAVYYCARGSSYYYYGVDVWGKGTTVTVSS VL: DIQMTQSPSSLSASVGDRVTITCRASQSISTWLAWYQQKPGKAPKLLIYAASSLQSGVPSRFSGSGSGTDFTLTISSLQPEDFATYYCQQAISFPLTFGGGTKVEIKR
